± gives the uncertainty stated by the source.
test: protein stability index of a GFP-peptide fusion (yeast GPS) (PSI 1-4); higher = more stable; sorted into four equal gates, so the index is relative within each strain; settings: pdr5∆
Procedure, shortened: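 For each peptide, the protein stability index sums the read frequency in every gate after multiplying it by the gate number. Read frequencies came from plasmids that were PCR-amplified from each gate and Illumina-sequenced, with reads assigned to strains by barcodes. The gates were four equal bins of GFP/Cherry fluorescence ratio applied to mid-log yeast in leucine-free medium carrying a pooled library of tiled 17-residue yeast protein peptides fused downstream of GFP on a Cherry-expressing plasmid.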

Row | Sequence | protein stability index
1 | SEKGFSKEQIHGSIIIL [YCS4] | 2.37 ± 0.077
2 | SEKKDTDGADENVQIGE [SRB4] | 3.31 ± 0.17
3 | SEVGDAFIFGLQDELKE [SMC3] | 3.31 ± 0.061

same assay, conditions: san1∆

Row | Sequence | protein stability index
4 | RFRGKRVVYLKHLEDNT [RPL6A] | 2.15 ± 0.1
5 | RFSPDEDFEHNNLSSMN [MCD1] | 3.09 ± 0.091
6 | RFVMPNQLLAALVAYTP [RRP6] | 1.39 ± 0.07
7 | RFYELEESLTVLNCLRT [YJR042W/NUP85] | 1.7 ± 0.29
8 | RGAWGKPHGLAARVDIG [RPL10] | 1.68 ± 0.08
9 | RGTDIDRINYTETALMN [SRB5] | 2.69 ± 0.082
10 | RGVTKVGFGESNFTSII [SMC1] | 3.09 ± 0.15
11 | RHIKSKHEDLSLEQRQE [RPN4] | 2.79 ± 0.096
12 | RHTTGTGRMRYLKHVSR [RPL37A] | 3.55 ± 0.081
13 | RIANIEQNHLDNNYNTA [YDL088C/ASM4] | 3.08 ± 0.044
14 | RIGVLQARMMQQQSADH [NSL1] | 3.06 ± 0.046
15 | RIHRLARYYRTVAVLPP [RPS13] | 2.44 ± 0.074
16 | RIHVNPSYYGVRDTSPH [BRR2] | 1.74 ± 0.085
17 | RIKEMYWKLWIDEPFNL [FAS1] | 2.76 ± 0.12
18 | RILKNVSPNDNNSANNN [YMR153W/NUP53] | 2.29 ± 0.054
19 | RILNFFDKNTKTTPNTA [YMR153W/NUP53] | 2.56 ± 0.048
20 | RINSTDEDLHEFQIEDA [SRB8] | 2.86 ± 0.12
21 | RITDASLFQLSKLGKNL [GRR1] | 2.12 ± 0.061
22 | RITKSNEKSQAEQEKAK [LRP1] | 1.48 ± 0.18
23 | RKDKDAKFRLILIESRI [RPS13] | 1.9 ± 0.11
24 | RKEWFDIKAPSTFENRN [RPS1A] | 1.77 ± 0.098
25 | RKIKRLEKFLQGRDTSK [SRP72] | 2.14 ± 0.12
26 | RKPMGKRINFEKIKDIH [POP1] | 3.04 ± 0.065
27 | RKTLKEKAIPKDQRATT [RPO26] | 3.04 ± 0.049
28 | RLAEFKRRKLDLNNAVQ [SMC4] | 2.98 ± 0.067

Row | Sequence | protein stability index
29 | RLANLIDYKLRVLTQDG [SMB1] | 1.62 ± 0.13
30 | RLDILDPALLRPGRIDR [RPT6] | 2.65 ± 0.12
31 | RLGSEADAKAFLDSMAQ [FAS2] | 3.21 ± 0.062
32 | RLLAKDAMIAQRSKKIQ [DIS3] | 1.41 ± 0.072
33 | RLLEKSELPDIYSRDIG [SNF2] | 2.96 ± 0.084
34 | RLQFAQGSVRRLTVSAR [QCR2] | 1.77 ± 0.27
35 | RLQQQQAQAQAQANNNN [GAL11] | 2.74 ± 0.076
36 | RMKQYLKTKLLEEVEGS [RPB7] | 3.11 ± 0.088
37 | RMVRSIMWQLLDGVSYL [SSN3] | 1.18 ± 0.12
38 | RNARAARAAKIAPRPLD [RPL13B] | 3.14 ± 0.074
39 | RNESLKNNSSIRNVIMS [SRB8] | 1.87 ± 0.084
40 | RNLDSATLKEIKSIIEQ [SMC3] | 3.2 ± 0.066
41 | RNQRKGAGSIFTSHTRL [RPL2A] | 2.73 ± 0.05
42 | RNSVKLLSKLLLKHPFK [YCS4] | 1.92 ± 0.056
43 | RPLQKIMLLQLELGSCF [SIN4] | 1.79 ± 0.1
44 | RQGLIHQGSGGSVMSAS [SMC3] | 2.53 ± 0.086
45 | RQGRSNRRGMLALSGTS [SNF5] | 2.81 ± 0.058
46 | RQILFKYPMYMQLEEEL [MED6] | 2.37 ± 0.12
47 | RQLAGAIGYEPLSLTHR [DIS3] | 2.86 ± 0.07
48 | RQSKSSGKSNTSNDASN [ITC1] | 3.34 ± 0.065
49 | RQVYKPVLDNPFTNEAH [POP3] | 2.46 ± 0.082
50 | RRDDEVLVVRGSKKGQE [RPL26A] | 3.59 ± 0.079
51 | RREFKQYSLERNSPFWW [PRP8] | 3.1 ± 0.12
52 | RRFKNGFQTGSAKATSA [RPL37B] | 3.39 ± 0.09
53 | RRKDTSMVLFFVCLSCS [RPB9] | 1.4 ± 0.12

Row | Sequence | protein stability index
54 | RRREQTTYSVDDYYKEI [ISW2] | 1.91 ± 0.071
55 | RRSLKKQGRIKNATEEL [CSN12] | 3.37 ± 0.086
56 | RSATGAKRAQFRKKRKF [RPS8A] | 3.42 ± 0.096
57 | RSKGKQNRPYNHPELQG [RPC17] | 2.03 ± 0.088
58 | RSLEKVNNSVSKTGSVD [SSN2] | 3.36 ± 0.14
59 | RSMVRKWQTLIEANVTV [RPS1A] | 1.67 ± 0.079
60 | RSNKIKVVKTPGGILRA [RPL34A] | 2.49 ± 0.064
61 | RSPVFALNMLPSEILHL [GRR1] | 2.4 ± 0.053
62 | RSSRLHIVYSLLVNPDI [YML103C/NUP188] | 1.87 ± 0.075
63 | RSSYMLELVNTPLTENI [YCG1] | 3.04 ± 0.073
64 | RSTKDMIDAVFEQDSHL [SNF6] | 3.27 ± 0.053
65 | RTDATFIRVIGSELVQK [RPT1] | 3.04 ± 0.072
66 | RTLRRKGDINPEVSMIR [RPB2] | 2.79 ± 0.21
67 | RTLTAVHDKILEDLVFP [RPS7A] | 3.28 ± 0.059
68 | RTSTRGRGRGRGRGRGR [SNF2] | 2.86 ± 0.098
69 | RTYSKTYSTPKRPYESS [RPS9A] | 2.46 ± 0.053
70 | RVERSSRSTDNFHNSKK [RRI1] | 2.99 ± 0.082
71 | RVIDDNNRRRSRKRGGE [SIR3] | 3.21 ± 0.11
72 | RVISEYYSRITLLRLNE [RPN5] | 1.68 ± 0.084
73 | RVLEIQTSLVRMFEKNV [SKI6] | 2.51 ± 0.078
74 | RVSKDKKSGSLTFNSKN [FAS2] | 3.23 ± 0.092
75 | RVTGGMKVKADRDESSP [RPS14A] | 3.28 ± 0.038
76 | RYEEFADKVKLGRVRNH [RPC40] | 3 ± 0.068
77 | RYLDNLKQEIDRGLSIK [SNU114] | 3.4 ± 0.18
78 | RYNGGNDNIGANRSRFN [SMB1] | 3.14 ± 0.048

Row | Sequence | protein stability index
79 | RYRLLSDVSDFEGWGHE [RPN1] | 3.07 ± 0.09
80 | RYSNLVCKKADVDLHKR [RPS18A] | 3.58 ± 0.13
81 | SAAASESDVAKQLASFG [RPL16B] | 2.44 ± 0.057
82 | SAAGMTAAIDSVVSQIE [FAS1] | 3.04 ± 0.24
83 | SAAMSIDKLSDVVMKAT [PRP8] | 2.45 ± 0.047
84 | SAASIPPQQTYHFPIFN [RPN4] | 2.52 ± 0.035
85 | SADREIQRTLMELLTQM [RPT4] | 3.27 ± 0.087
86 | SALQQIMYQQMLKYRRL [SNF2] | 1.44 ± 0.091
87 | SATFLRIVGSELIQKYL [RPT2] | 1.18 ± 0.13
88 | SAVVGPNGSGKSNVIDS [SMC4] | 3.06 ± 0.06
89 | SCAIHARIVRVRSREDR [RPS26A] | 1.4 ± 0.18
90 | SDDDNIGQSEELSDKEI [ISW2] | 3.31 ± 0.08
91 | SDKIPYVAPTKKEYIEL [SRB4] | 2.32 ± 0.11
92 | SDLINKDLVKNNVSFNA [FAS1] | 1.62 ± 0.11
93 | SDPVCLFVCNKDPDVPL [POP3] | 2.31 ± 0.084
94 | SDRREHDEKLSDELHNQ [LIN1] | 3.19 ± 0.16
95 | SDSIEKIVEIDRHIGCA [PUP2] | 2.74 ± 0.13
96 | SDSYKVSLQNFSSSVSL [RRP40] | 2.02 ± 0.079
97 | SEDDSESGKVFIGRLPI [RPB2] | 3.31 ± 0.055
98 | SEGFEPTFSTHAQLLLS [PRP8] | 1.66 ± 0.048
99 | SEISIIDATLKEELLRD [RRP45] | 2.3 ± 0.099
100 | SEKGFSKEQIHGSIIIL [YCS4] | 2.76 ± 0.076
101 | SEVGDAFIFGLQDELKE [SMC3] | 3.1 ± 0.057

same assay, conditions: ubr1∆

Row | Sequence | protein stability index
102 | RFRGKRVVYLKHLEDNT [RPL6A] | 2.31 ± 0.049
